Experimental data taken from PMC9562341, “AI protein structure prediction-based modeling and mutagenesis of a protostome receptor and peptide ligands reveal key residues for their interaction” (The Journal of Biological Chemistry, 2022).
Read-outs that look alike come from different tables or passages of the source. Blank lines part the entries; values can stand above or below the substance they belong to. Where no end group is shown, it is not given here.

What was measured:
[1] = biological target: T1, ALKR (Aplysia leucokinin-like peptide receptor) (Aplysia californica, UniProt A0A977Q7Q2); experiment: IP1 accumulation assay, CHO-K1 cells transfected with ALKR; format: cell-based; conditions: log scale; CHO-K1 transiently transfected with ALKR, no promiscuous Gαq; IP1 detection kit (Cisbio); mean ± SEM; ALK1 n = 13, ALK2 n = 4, others n = 3; inactive: greater than highest concentration tested; read-out: log [EC50] on ALKR (converted)
T1 sequence (A0A977Q7Q2 1-429): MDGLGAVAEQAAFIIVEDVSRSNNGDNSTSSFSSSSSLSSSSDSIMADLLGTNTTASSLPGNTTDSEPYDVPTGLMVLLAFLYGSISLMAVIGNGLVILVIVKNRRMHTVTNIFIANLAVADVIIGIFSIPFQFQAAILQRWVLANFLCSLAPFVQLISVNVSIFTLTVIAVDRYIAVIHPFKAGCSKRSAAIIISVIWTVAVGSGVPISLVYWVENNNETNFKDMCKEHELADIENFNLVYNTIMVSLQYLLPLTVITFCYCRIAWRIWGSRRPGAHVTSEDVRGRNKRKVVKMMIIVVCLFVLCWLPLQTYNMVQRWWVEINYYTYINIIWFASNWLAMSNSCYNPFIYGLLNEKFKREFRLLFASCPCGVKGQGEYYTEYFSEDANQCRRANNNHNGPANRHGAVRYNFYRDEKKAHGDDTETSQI
Description: To examine whether the native ALKs could activate the putative ALKR, we expressed the ALKR in Chinese hamster ovary K1 (CHO-K1) cells and examined ALK-mediated changes in the concentration of inositol monophosphate (IP1), a degradation product of the second messenger (inositol trisphosphate) in the Gq signaling pathway upon ligand-induced activation ([88]) (Figs. 4 and S5). […] All endogenous ALK peptides could activate ALKR in a dose-dependent manner (Fig. 4, A–C). […] The lowest EC50 values were for ALK8 (EC50 = 10 nM) and ALK9 (EC50 = 10 nM). The EC50 values for ALK1, ALK2, ALK3, ALK4, ALK5, ALK10, ALK13 were slightly higher than that of ALK9, but there was no statistically significant difference between them (Table S5).
(§1) IP1 accumulation assay measures concentration of IP1 ([88]), that is hydrolyzed from the second messenger, inositol trisphosphate, generated by Gαq pathway when GPCR expressed in CHO-K1 cells is activated by an appropriate ligand. We note two reasons that we selected mammalian CHO-K1 cells for assays for ligand-receptor (GPCR) activity: (1) there are no established molluscan cell lines available; (2) CHO-K1 cells have been extensively utilized not only for vertebrate GPCRs (e.g., ([97])) but also for invertebrate/protostome GPCRs, including other molluscs ([9], [11], [73]), annelids ([8]), jellyfish ([98]), Caenorrhabditis elegans ([99]), and arthropods ([76], [78], [79], [80]). Given that LKRs are only present in protostomes ([6], [7], [66], [67]), an additional advantage of using mammalian cells to assay ligand-receptor activity is that the effects of a possible native LKR in protostome cell lines could be excluded.
(§2) In order to express the Aplysia putative receptor transiently in CHO-K1, the cDNA was cloned into the mammalian expression vector pcDNA3.1(+). […] Transfection experiments were performed when the cells were grown to 70 to 90% confluence. For the ALKR, in each dish (60-mm diameter), 4 μg of the putative receptor plasmids [in pcDNA3.1(+)] were mixed with 400 μl of Opti-MEM (Gibco, 11058021), followed by the addition of 15 μl of Turbofect (Thermo Fisher Scientific, R0531). […] Thus, 3 μg of the putative receptor plasmids [in pcDNA3.1(+)] and 3 μg of promiscuous Gαq protein ([89]) [in pcDNA3.1(+)] were cotransfected in the above procedure for the Anopheles LKR ([8], [10]). The CHO-K1 cells with the reagents added above were mixed gently and incubated at room temperature for 15 min. The DNA/Turbofect mixture dropwise was then added to the dish, and the cells were incubated at 37 °C in 5% CO2 overnight. The next day, the cells were trypsinized and reseeded in opaque white 96-well half-area (Corning, 3688) or 384-well tissue culture–treated plates (Corning, 3570) at a density of 20,000 cells/well in F-12K and 10% FBS and incubated at 37 °C in 5% CO2 overnight. On the third day, the activation of the receptors was detected by monitoring IP1 accumulation using IP1 detection kit (Cisbio, 62IPAPEB) with a Tecan Spark plate reader. Except for using 0.5 × reagents for the anti-IP1-cryptate and IP1-d2 reagents, all other procedures were performed in accordance with the IP1 detection kit manufacturer’s instructions.

[2] = biological target: Aplysia leucokinin-like peptide receptor (Aplysia californica)
[3] = biological target: ALKR I329Q (Aplysia californica)
[4] = biological target: ALKR L157Q & I329Q (Aplysia californica)
[5] = biological target: ALKR L157Q (Aplysia californica)
[6] = biological target: ALKR Q133A & Y213A & Q317A (Aplysia californica)
[7] = biological target: ALKR Q133A (Aplysia californica)
[8] = biological target: ALKR Q250A & Q311A (Aplysia californica)
[9] = biological target: ALKR Q317A (Aplysia californica)
[10] = biological target: ALKR Y213A (Aplysia californica)
[11] = biological target: ALKR N314A (Aplysia californica)
[12] = biological target: Aplysia leucokinin-like peptide receptor (Aplysia californica); remark: listed apart in the source
Anopheles LKR = biological target: T2, Anopheles LKR (Anopheles stephensi, UniProt Q694V6); experiment: IP1 accumulation assay, CHO-K1 cells cotransfected with Anopheles LKR and promiscuous Gαq; format: cell-based; conditions: log scale, mean ± SEM, n = 3
T2 sequence (Q694V6 1-573): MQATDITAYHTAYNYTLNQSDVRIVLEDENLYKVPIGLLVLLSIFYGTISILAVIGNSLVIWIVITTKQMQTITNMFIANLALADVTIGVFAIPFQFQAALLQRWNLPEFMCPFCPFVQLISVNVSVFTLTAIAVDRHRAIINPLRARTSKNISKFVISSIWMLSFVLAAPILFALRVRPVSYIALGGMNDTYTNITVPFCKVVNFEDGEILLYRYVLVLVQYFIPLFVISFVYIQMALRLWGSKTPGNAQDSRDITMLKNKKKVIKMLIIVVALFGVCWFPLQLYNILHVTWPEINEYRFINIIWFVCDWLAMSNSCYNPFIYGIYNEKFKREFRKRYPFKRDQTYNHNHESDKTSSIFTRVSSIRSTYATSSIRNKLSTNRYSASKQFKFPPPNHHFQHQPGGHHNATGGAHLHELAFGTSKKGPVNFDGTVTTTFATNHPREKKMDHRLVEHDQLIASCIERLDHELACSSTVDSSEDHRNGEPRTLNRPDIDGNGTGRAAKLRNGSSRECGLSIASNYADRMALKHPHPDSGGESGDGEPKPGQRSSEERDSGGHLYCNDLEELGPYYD
Description: Considering the similarity of leucokinin-like peptides in different species (Fig. 1), we sought to evaluate cross-activity between leucokinin peptides and their receptors in different species. We selected A. stephensi because it is a pest, and this would also provide an opportunity to determine if Aplysia LKs could be potentially used as insecticides ([67]). […] Thus, we cotransfected promiscuous Gαq with the Anopheles receptor, whereas there was no cotransfection of promiscuous Gαq for ALKR.
as §1
as §2, with “Except for using 0.5 × reagents for the anti-IP1-cryptate and IP1-d2 reagents, all other procedures were performed in accordance with the IP1 detection kit manufacturer’s instructions.” left out

Substance: PAFSAWS-NH2 [ALK3]
- EC50 [1]: 0.0117 µM

- EC50 of IP1 accumulation in CHO-K1 cells transfected with ALKR [2]: 0.092 µM
Substance: Aplysia leucokinin-like peptide 7

- EC50 of IP1 accumulation in CHO-K1 cells expressing the ALKR mutant, activated by ALK1 [3]: 6.8 µM
- EC50 of IP1 accumulation in CHO-K1 cells expressing the ALKR mutant, activated by ALK1 [4]: 35 µM
- EC50 of IP1 accumulation in CHO-K1 cells expressing the ALKR mutant, activated by ALK1 [5]: 0.077 µM
- EC50 of IP1 accumulation in CHO-K1 cells expressing the ALKR mutant, activated by ALK1 [6]: 13 µM
- EC50 of IP1 accumulation in CHO-K1 cells expressing the ALKR mutant, activated by ALK1 [7]: 0.078 µM
- EC50 of IP1 accumulation in CHO-K1 cells expressing the ALKR mutant, activated by ALK1 [8]: 19 µM
- EC50 of IP1 accumulation in CHO-K1 cells expressing the ALKR mutant, activated by ALK1 [9]: 0.056 µM
- EC50 of IP1 accumulation in CHO-K1 cells expressing the ALKR mutant, activated by ALK1 [10]: 0.37 µM
- EC50 of IP1 accumulation in CHO-K1 cells expressing the ALKR mutant, activated by ALK1 [11]: 0.12 µM
Substance: Aplysia leucokinin-like peptide 1

- EC50 of IP1 accumulation in CHO-K1 cells transfected with ALKR [2]: 0.062 µM
Substance: Aplysia leucokinin-like peptide 11

- EC50 of IP1 accumulation in CHO-K1 cells transfected with ALKR [2]: 0.01 µM
Substance: Aplysia leucokinin-like peptide 9

Substance: AAFHSWS-NH2 [ALK1_A1]
- EC50 [1]: 0.141 µM

- EC50 of IP1 accumulation in CHO-K1 cells transfected with ALKR [12]: 0.051 µM
Substance: ALK1 with H4 replaced with A (peptide)

Substance: PAFNAWG-NH2 [ALK8]
- EC50 [1]: 0.0102 µM
- EC50 (Anopheles LKR): 0.0407 µM

- EC50 of IP1 accumulation in CHO-K1 cells transfected with ALKR [2]: 0.33 µM
Substance: Aplysia leucokinin-like peptide 12

Substance: AGFAPWA-NH2 [ALK4]
- EC50 [1]: 0.0195 µM

Substance: PAFQAWS-NH2 [ALK13]
- EC50 [1]: 0.0151 µM

Substance: PAAFHAWS-NH2 [ALK11]
- EC50 [1]: 0.0617 µM

Substance: PAFHAWG-NH2 [ALK10]
- EC50 [1]: 0.0214 µM

Substance: LAAFHAWS-NH2 [ALK12]
- EC50 [1]: 0.295 µM

Substance: DTPRYVSKQKFHSWG-NH2 [Anopheles LK1, reference compound]
- EC50 [1]: 0.427 µM
- EC50 (Anopheles LKR): 0.00363 µM
